Data as given in article PMC9045149.

Tests used:
[1] = molecular target: 6xHis-tagged cell-wall binding domain of endolysin CD16/50L, wild type (Clostridioides difficile phage ϕHN50 (identical in ϕHN16-1)); assay: SEC; Superdex 75 10/300 GL, 50 mM Tris-HCl (pH 8.0), 500 mM NaCl, 0.5 mL/min; approximately 2.5 mg/mL of each purified 6xHis-CBD variant injected separately; size from calibration with standard proteins
PG-PS complex = assay: co-precipitation (pull-down) with PG-PS complex, SDS-PAGE band quantification; conditions: parent: est. 1.0; read off a plot
[2] = molecular target: CD16/50L CBD wild type fused to SmBit and to LgBit (CBD-SmBit/LgBit, plasmid pWP004) (Clostridioides difficile phage ϕHN50 (identical in ϕHN16-1)); assay: split reporter (BiFC, NanoBiT); BitLuc^opt split luciferase in live C. difficile R20291; CBD-SmBit and CBD-LgBit co-expressed, induced with 4% (wt/vol) xylose for 2 h; Nano-Glo (furimazine) substrate, luminescence read
[3] = molecular target: CD16/50L CBD C234A fused to SmBit and to LgBit; assay: split complementary luciferase assay (SmBit/LgBit) in C. difficile cells; conditions: 4% (wt/vol) xylose for 2 h; furimazine substrate incubated for 5 min; parent: est. 6.0; read off a plot
[4] = molecular target: CD16/50L CBD E239A fused to SmBit and to LgBit; assay: as above; conditions: 4% (wt/vol) xylose for 2 h; furimazine substrate incubated for 5 min; parent: est. 6.0; read off a plot
[5] = molecular target: CD16/50L CBD F248A fused to SmBit and to LgBit; assay: as above; conditions: 4% (wt/vol) xylose for 2 h; furimazine substrate incubated for 5 min; parent: est. 6.0; read off a plot
[6] = molecular target: CD16/50L CBD M260A fused to SmBit and to LgBit; assay: as above; conditions: 4% (wt/vol) xylose for 2 h; furimazine substrate incubated for 5 min; parent: est. 6.0; read off a plot
[7] = molecular target: CD16/50L CBD Q250A fused to SmBit and to LgBit; assay: as above; conditions: 4% (wt/vol) xylose for 2 h; furimazine substrate incubated for 5 min; parent: est. 6.0; read off a plot
[8] = molecular target: CD16/50L CBD W257A fused to SmBit and to LgBit; assay: as above; conditions: 4% (wt/vol) xylose for 2 h; furimazine substrate incubated for 5 min; parent: est. 6.0; read off a plot
[9] = molecular target: CD16/50L CBD Y202A fused to SmBit and to LgBit; assay: as above; conditions: 4% (wt/vol) xylose for 2 h; furimazine substrate incubated for 5 min; parent: est. 6.0; read off a plot
[10] = molecular target: CD16/50L CBD (Y202A, W257A) fused to SmBit and to LgBit; assay: as above; conditions: 4% (wt/vol) xylose for 2 h; furimazine substrate incubated for 5 min; parent: est. 6.0; read off a plot

6xHis-tagged cell-wall binding domain of endolysin CD16/50L, wild type (domain or fragment)
stoichiometry N [1]: 2

6xHis-tagged cell-wall binding domain of endolysin CD16/50L, wild type W257A
ratio to parent (PG-PS complex): 0.35

6xHis-tagged cell-wall binding domain of endolysin CD16/50L, wild type Y202A; W257A
ratio to parent (PG-PS complex): 0.47

CD16/50L CBD wild type fused to SmBit and to LgBit (CBD-SmBit/LgBit, plasmid pWP004) (domain or fragment)
fold increase of the luciferase signal over the single-fragment controls [2]: < 300 fold

CD16/50L CBD wild type fused to SmBit and to LgBit (CBD-SmBit/LgBit, plasmid pWP004) C234A
response [3]: 6 log RLU

CD16/50L CBD wild type fused to SmBit and to LgBit (CBD-SmBit/LgBit, plasmid pWP004) E239A
response [4]: 6.1 log RLU

CD16/50L CBD wild type fused to SmBit and to LgBit (CBD-SmBit/LgBit, plasmid pWP004) F248A
response [5]: 6 log RLU

CD16/50L CBD wild type fused to SmBit and to LgBit (CBD-SmBit/LgBit, plasmid pWP004) M260A
response [6]: 6 log RLU

CD16/50L CBD wild type fused to SmBit and to LgBit (CBD-SmBit/LgBit, plasmid pWP004) Q250A
response [7]: 6 log RLU

CD16/50L CBD wild type fused to SmBit and to LgBit (CBD-SmBit/LgBit, plasmid pWP004) W257A
response [8]: 4.9 log RLU

CD16/50L CBD wild type fused to SmBit and to LgBit (CBD-SmBit/LgBit, plasmid pWP004) Y202A
response [9]: 5.9 log RLU

CD16/50L CBD wild type fused to SmBit and to LgBit (CBD-SmBit/LgBit, plasmid pWP004) Y202A; W257A
response [10]: 3.5 log RLU
